From paper PMC9731866, “Structures of a constitutively active mutant of human IDH3 reveal new insights into the mechanisms of allosteric activation and the catalytic reaction” (The Journal of Biological Chemistry, 2022)

Assays:
[1] = biological target: αMβ heterodimer of HsIDH3 (α-Q139A with β) (human) (UniProt P50213); assay: SEC-MALS; high concentration (10 mg/ml); Superdex 200 10/300 GL, 24 °C, 10 mM Hepes pH 7.4, 200 mM NaCl, 5 mM β-ME; N counts the units (heterodimers or heterotetramers) in the oligomer
[2] = biological target: αMβ heterodimer of HsIDH3 (α-Q139A with β) (human) (UniProt P50213); assay: SEC-MALS; low concentration (1 mg/ml); Superdex 200 10/300 GL, 24 °C, 10 mM Hepes pH 7.4, 200 mM NaCl, 5 mM β-ME; N counts the units (heterodimers or heterotetramers) in the oligomer
[3] = biological target: αMβαMγ heterotetramer of HsIDH3 (α-Q139A in both heterodimers) (human) (UniProt P50213); assay: SEC-MALS; high concentration (10 mg/ml); Superdex 200 10/300 GL, 24 °C, 10 mM Hepes pH 7.4, 200 mM NaCl, 5 mM β-ME; N counts the units (heterodimers or heterotetramers) in the oligomer
[4] = biological target: αMβαMγ heterotetramer of HsIDH3 (α-Q139A in both heterodimers) (human) (UniProt P50213); assay: SEC-MALS; low concentration (1 mg/ml); Superdex 200 10/300 GL, 24 °C, 10 mM Hepes pH 7.4, 200 mM NaCl, 5 mM β-ME; N counts the units (heterodimers or heterotetramers) in the oligomer

| Substance | stoichiometry N [1] | stoichiometry N [2] | stoichiometry N [3] | stoichiometry N [4] |
| --- | --- | --- | --- | --- |
| αMβ heterodimer of HsIDH3 (α-Q139A with β) (from UniProt P50213 28-366; O43837 35-360) (complex) | 2 | 2 |  |  |
| αMβαMγ heterotetramer of HsIDH3 (α-Q139A in both heterodimers) (from UniProt P50213 28-366; O43837 35-360; P51553 40-393) (complex) |  |  | 2 | 2 |
